Results: a protein production outcome set (Wang et al. 2014)

Test: label from the status in PepcDB records

MKSADGLLHVAFTPSKATGKVLASELPEKVGKRSSVLYPASLKAGNDIGVPVQSVDTVLLQQALSAPVLSVASPSAVRAWLHLIQNEEQWSNYVACIGETTASAARRLGLKNVYYPEKPGLEGWVESIMEALGAHADSSNPSSRN
protein production: failed

MTSFAQLDIKSEELAIVKTILQQLVPDYTVWAFGSRVKGKAKKYSDLDLAIISEEPLDFLARDRLKEAFSESDLPWRVDLLDWATTSEDFREIIRKVYVVIQEKEKTVEKPTAL
protein production: not failed

MRIAAALLAIALTGLSGAVWAETSAAIVARKPDLFHPETGLRIDRQRAPVPEDIPPPARKISALWARKLIARGALALDVYGAAQSRYDELDGTWLVPEPRQSLPGAVWLPEVGRGVLDAALQVYLERELERLTGGSKARAIVVFCVADCWMSWNAAQRIAGMGYLQVYWFPLGTDGWRELGWPLEPVEPVPVPVD
protein production: failed

MTKAIQSSVQVGELATGQALTVPIYSFMGSENSAPSVYIQANVHGAEVQGNAVIYQLMTLLEGYQVLGDITLAPLANPLGINQKSGEFTLGRFDPITGVNWNREYFDHNVDIQNWYAEHQHLTNSELFCAYRSMLVETCQARLTHSFGISTGHRLAVNLQAMAHQADIVLDLHTGPKSCKHLYCPEYDIDAARFFSIPYTLIIPNSFGGAMDEATFCPWWQLTEYATSQGREFSVPVSAFTLELASQERIDLADALEDAKGILAYLSHRGVIAEKVNPASMERFGCYLKDYKKFHAPKAGLIEYCASVGEPLTAGKPLVNILRIDLYGSEQAYQAISLPMDCVPILHFASASVLQGTELYKVMTNVFPLQPS
protein production: not failed

MANDGATVFWLSFLAIILGFLSWKFKKIGGISLIAISIYGLFVNGLFFIFAFVFLMIAGILSFKIKPTSPKDVKIAN
protein production: failed

MRSYAIGDIHGHLSLLQEIHGRIAADRARTGDDEAPVVHIGDLVDRGPDSRGVVEYLRQGIEQGENWVVLKGNHDRMFAGFLRDPAHQDPGLRGDLSWLHPRLGGGPTLESYGVAHAADRPVAIVHREAVALVPAEHVAFIEALPAVYRRDEALFVHAGIRPGVPLAEQIEDDLVWIREPFLSDPRDHGMLVVHGHTAIDAVTHYGNRLNLDSGAAYGGPLSAVVIEGRSVWQLGPEGRRPIALEHHHHHH
protein production: failed

MADGIYGSFENLKKHAGAMTLETYMRFNAKLSEAKDEMGAKEYEEFTKELKKLTNAKLAYGDSNGNIDYDGLSPAKREEMKKVSMGLQPYFDKLNGHKSSKEVLTQEEFDRYMEALMTHEIVRVKTKSTGAIKIEEVPEAYKERFIKAEQFMEYVDEKVR
protein production: not failed

MTSKHFISKKEAKRIWEAMARYGIDITGESLEVAAQKSASAYYIGGKPMVFQAGDLIPSVYLLNYRNPSRNIVTVDEGAEPHILNGSDLFAPGIVSMDDSIRKGDMIFVKSSKGYFIAVGMAEMDAGEVMATKRGKAARIIHFPGDELIRAFP
protein production: not failed

MTMDNFSIRPMKRSELDVVIDWAAIEGWNPGIYDAECFYQADQCGFFVGELNNELVASISAVAYSQHFAVIGFYIVKEQFRGRGFGMKMWRTAMAYLGSERNISLDGVIAQQENYKKSGFQIAYRHIRYQV
protein production: failed

MGDWSKLPEELLGLIALRLYSVIELIRFRSICKSWRSSASGVNKNHSLSSPLIYFKPLQIILARAQANGQILSKYHGTVLSRATFFRVTLASSPDQGWLIKSDTDLKYRNFHLLNCLSRKALGRSRKLISLSEFIVSEIQESYAVVGRRTRETASEFKRVFLVRVQGGDHRVLVIGIDGKIRFWKGGIWNGIKKQVAQFSDFVLDEGLTYAVDTKGIMWWISSAYDIIRYGTKLHENITNGSCGEKRFVRCRGELYIVDRLIDENLLKRKADSYDDNAIVHFRNADYTNADLWEDGNGNDDFFAAQAHRFIHVLHDNLGNVSCKPFERDPPKTIGFKVYKNDEELLKWVEVKSLGDKAIVIATDACFSVSAHEFYGCLPNSIYFTDKKEEEVKVFKLDDGSITTMSESEQSCFQMFVPSFL
protein production: not failed

MSRRAGHNGRPLLEVPMLLRGLTWLVLFQLLGTGLNVLLLPMLPGPIIGLVLLFGYFLARGEVGKPVNEAAGSLLRYLPLLLVPAAVGVMAYAREIAADFWAIVGALVLSLLLSFLFAGWMMQKLIDRQQRRREES
protein production: failed

MFLKKKLSAGKSVVGTMLNLVYNPDIVRIYAEAGLDYFIVDCEHAAYTFREINHLVSVAKNAGVSVLVRIPQVDRAHVQRLLDIGAEGFMIPGVQSAETMRETVRLAKYPPLGERGVGGSIVTDFKPVNWAEWVQERNDEIFIMAQIEHVKAVEDIDSILAVQGVDAVIFGPRDLSNDLGIIGQTEHPKVYECYEKVYRAADRQGVVKGFFTAADAAKMGWAVERGAQMLLWSGDVAALQTYTAKGVKTIKELPGFNP
protein production: not failed

MKAIRRFTVRPVLPDALHPLSDLARNLRWSWHAETRELFQSVDPERWAASDGDPVRLLGSVPHARLAELAEDRRFLRRLGAAADDLTDYVTGDRWYQSQAEAPSRAAELPAAIAYFSPEFGVTAALPQYSGGLGILAGDHLKAASDLGVPLIGVGLLYRHGYFRQSLSRDGWQQEHYPVLDPHELPVVPLREDDGALAQVSLALPGGRRLQARIWLAQVGRVPLLMLDSDVEENDHGERGVTDRLYGGGSEHRLLQEMLLGIGGVRAVRTYCRLTGHAEPEVFHTNEGHAGFLGLERIAELCDTGLDFDAGLESVRAGTVFTTHTPVPAGIDRFDRELVARHFGPDAELPRIDVERILGLGMETYPGGEPNLFNMAVMGLRLGQRANGVSLLHGQVSREMFSGLWPGFDPDEVPITSVTNGVHAPTWVAPEVFRLGARQIGAQRTEDAMTVGGSERWDAVAEIPDQDIWDLRRVLREQLVTEVRERLRASWRQRGAGTAELGWIDGVLDPDVLTIGFARRVPSYKRLTLMLRDRDRLMDLLLHPERPVQIVVAGKAHPADDGGKRLVQELVRFADDPRVRHRIVFLPDYGMAMAQKLYPGCDIWLNNPLRPLEACGTSGMKAALNGCLNLSVLDGWWDEWFQPDFGWAIPTADGTATDEDRRDDLEATALYDLLEGRVAPRFYERGQAGLPDRWIEMVRQTLTHLGPKVLAGRMVREYVERLYTPAALAHRALTPEPARELATWKSRVRAAWPRVTVDHVETSVATTTAELGTTLSLRVRVGLGDLDPDDVEVQAVAGRVDGQDRITDATAVPLKPVGGPDLEGRRVYEGPLSLDRTGPFGYTVRILPTHRLLATSAELGLVAVPSEDVGEGAGVLLR
protein production: failed

MLRRSFSSYLRQGLLLAFLAAFSALWLAQAHAERRAAIVVGNSEYPFAPLTNPRNDAKLIANTLTELKFDVLLFYDVKKSAEKDLNDAIRAHLIGADMAVFYYAGHALQYNGQNLLLPVDTRISSAKEVAADAMRLNDLIDIVKNDPVGVKVFILDACRNNPVAKEKGLQQGLAYTEAGSGQVLVAFATSAGEVAYDGTGINSPYSSALANALLMPNLDVYDTFRTVRGDVRQATGGSQIPWITGSIETKFVFRQGDAGKQVAQAEHAAEADGGLTIDEVLWSFISDSQNPEDFERFVKVFPNSRYAAEATEKSRFKVAALTKRGLYVNGNLVSSSIAATAPIGASDKALSEEFVFQQAGERAVSETFRIWPSNLPDTQRGMRTMVTDCDLYAADPNDPQRAVPGVTNGLVNVRDALRACAFALAADINNPRLQFQFGRVLEIARRYSWAEHFYELAGNQQYSAALINMGYMARVGMGREIDYGRAFDPYVRAAALGNLRARTDIGSAYIAGQGVPKLPEEGVLWYRLAASSGWANAITALGDAYRLGTGVKQDYVQAASLYSAAADTGQIDAMANLGQAYLAGEGVKKDVPRGLELLQRANDMGNRYAPYFMAQLYLKGDRKLPADPRRALALLELSANRGNEYAYVRLAWGHRDGVFTGGKPDLRRAYFDASLAARLRADQGEQAKAEIAKKIDPATRKEIDGEVELYIKQNGP
protein production: failed

MNLLYMVLIGQIILFLIGAMYAIGQTKKTRNNMPLPLAVRLILSFSLTASAIWIWLQDPSVDYSTWVALGMTLSTVGDLFMAGLIPIGHRLIGGMITFALAHCFYVKAFLQTGISWNGFWIGLLVYGLFLIIGWFFFIRNEKQDKLFTIGALIYGLWVGGMACFAFALYYENTGIWWIPAFGGLLFVISDFIIGVTDIGGRKLKYEPLWIWFTYVAAQMCIVYVGI
protein production: failed

MATNLIGLDTTQSQKLANALNNLLANYQVFYMNTRGYHWNIQGKEFFELHAKFEEIYTDLQLKIDELAERILTLSARPMHSFSGYLKAAQIKEHTDSIDGRSSMQGLVDGFSILLHQQRDILELAGETGDEGTSALMSDYIREQEKLVWMLNAWLK
protein production: not failed

MLFYLYVTRCKQLLNYNNMETDNGDKEKSEEDDLCALKDALEAVILFQGLSEYQKKLMFPNLKNLGAETIKELIDEWKELNVEELNLNIKKQTFFTKFANASWSLMLLIQQENNFCFWMFYVIPTSLFFVCCVLLHLLNDGS
protein production: failed

MMQDCEKLLDEPGRLAAVRRYAVLDTAPEEPFDKLTRLVCNVLEVPYAAVTLIDADRQWFKSLVGLSGSEGPRHESFCTHTIKTRDPMIVPDATLDPRFRDSPLVTGAAGIRSYLGVPLETPDGYNLGALCAVDTAPRTFSTSQIEIMKSFASLVLDELELRQIALSDALTGAMTRRGWLAAVEKEMARGARQGTQAAIVLFDVDHFKAINDTHGHAVGDAVLQALTRRCLLHLGPADALGRIGGEEFAVLVPDAGLPEAMELAERLRRSFSDAPIEVAGQALRVTASFGVQGLDGDTGNAGSWLAAADRRLYEAKAAGRNRCHGG
protein production: failed

MNTRPFYFGLIFIAIIAILANYLGNTDFSHHYHISALIIAILLGMAIGNTIYPQFSTQVEKGVLFAKGALLRTGIVLYGFRLTFGDIADVGLNAVVTDAIMLISTFFFTALLGIRYLKMDKQLVYLTGAGCSICGAAAVMAAEPVTKAESHKVSVAIAVVVIFGTLAIFTYPLFYTWSQHLINAHQFGIYVGSSVHEVAQVYAIGENIDPIVANTAVISKMIRVMMLAPFLLMLSWLLTRSNGVSENTSHKITIPWFAVLFIGVAIFNSFDLLPKELVKLFVEIDSFLLISSMAALGLTTQASAIKKAGLKPFVLGILTYLWLVVGGFLVNYGISKLI
protein production: failed

MANCFAPQLTFPSFSPRHFSPRMSHQSPKPSTSTTTSIFTSATKLLWGPSLPPGLLISTARTAWTTVWQLMMTQLAPSDSSGSYTRPTSKFRLDPTQFTSAASSELHLYVGLPCPWAHRTLIVRALKGLNDAVPVSIASPGQDGSWEFKNNNIPIKDKDKLIPSLDKANRCRNLKEVYKSRSGGYDGRCTVPMLWDLRKKDVVCNESYDIIEFFNSGLNKLARNDNLDLSPPELKEMIQGWNQIVYPKVNNGVYRCGFAQSQEAYDGAVNELFSTLDEIEDHLGSNRYLCGERLTLADVCLFTTLIRFDSVYNILFKCTKKKLVEYPNLYGYLREIYQIPGVAATCDISAIMDGYYKTLFPLNASGIQPAISSSGDQDSLWRPHNRDLVGKAIEAQLSV
protein production: failed

MAWNKQVALVFLPSDSGVDGARSLYGDTEPPGLRRWLDSGVRNLIKRTQFAIPPLALMILASIEVPGVEQTLCDLRFEEFPFDRQWDLVGISVQTGMASKAFELADRLRSRGVKVVLGGPHVTMFPDSCRAHADCLVHGEADDLWRDVLADLVTDSLKAEYRPDAPPDLQLHRPVSRASLKKNRYFTTNLVQTGRGCPYQCDFCNVHVLNGRVLRQRKIDHIVDEVRRFSEEDKRIFFFVDDSINGDPLFARELFKHLIPLNITWFGQATTALGQQPELLDTFARSGCRALLVGIESIEPSSRIAHKKTQNRTDELAGNIRAIRKSGISLYGSFIYGLDGDTLQTPQAILDFIADTRLDVPGINTLRPIPGTKVFDRLREEGRLLFDPEDITSFRYTFGQEMLYRPKNIPLPEFIESYSELTRKVFNIGNAIRRGLEAPGINAAVLFFNLFYTHLYRLSRNDLRKQLETLGSA
protein production: failed

MKSQWECFLQNLGVWEGSFSNFSPEGTLLNDTSSRLCLEGLNNNQTVRLTLSRSGKDDVIREFRSVGGGLLFFENGSFSEGLIQLGPFSEFGGELAFVHENRRLRLVQLFDRNGHLNGLTLIREHLAGTPVAERPLLQINDLLGEWRGQAVTIYRDLRPPDIYSTTLKIQLDDAGRLMQSTSFGERTITSTATIKGSIVLFDQDPEKQVQVLLLPDGASATSPLKVQLRQPLFLEAGWLIQSDLRQRMIRSYNDKGEWVSLTLVTEERV
protein production: not failed
